Assay results taken from patent publication US20100255578A1.

How the values were obtained:
H296-H271 [1] = assay: ELISA; H296-H271 coated at 15 ug/mL; HRP-labeled FNH3-8, ABTS; blank subtracted
H296-H296-H296-HT [2] = assay: ELISA; H296-H296-H296-HT coated at 4 ug/mL; HRP-labeled FNH3-8, ABTS; blank subtracted
[3] = target: H-296, a polypeptide comprising a heparin binding domain and a CS-1 domain of fibronectin (Homo sapiens (Human)) (UniProt P02751); assay: ELISA; H-296 coated at 50 ug/mL in 0.2 M phosphate buffer pH 6.2; HRP-labeled FNH3-8, ABTS
H296-H296-H296-HT [4] = assay: ELISA; H296-H296-H296-HT coated at 1 ug/mL; HRP-labeled FNH3-8, ABTS; blank subtracted
[5] = target: H-296, a polypeptide comprising a heparin binding domain and a CS-1 domain of fibronectin (Homo sapiens (Human)) (UniProt P02751); assay: ELISA; H-296 coated at 50 ug/mL in 0.2 M phosphate buffer pH 8.0; HRP-labeled FNH3-8, ABTS
H296-H271 [6] = assay: ELISA; H296-H271 coated at 5 ug/mL; HRP-labeled FNH3-8, ABTS; blank subtracted
[7] = target: H-296, a polypeptide comprising a heparin binding domain and a CS-1 domain of fibronectin (Homo sapiens (Human)) (UniProt P02751); assay: ELISA as in Example 34; H-296 coated at 50 ug/mL in pH 5.6 acetate buffer; HRP-labeled FNH3-8
H296-H271 [8] = assay: ELISA; H296-H271 coated at 7 ug/mL; HRP-labeled FNH3-8, ABTS; blank subtracted
[9] = target: H-296, a polypeptide comprising a heparin binding domain and a CS-1 domain of fibronectin (Homo sapiens (Human)) (UniProt P02751); assay: ELISA; H-296 coated at 25 ug/mL in 0.2 M acetate buffer pH 5.0; HRP-labeled FNH3-8, ABTS
H296-H296-HT [10] = assay: ELISA; H296-H296-HT coated at 3 ug/mL; HRP-labeled FNH3-8, ABTS; blank subtracted
[11] = target: H296-H296 (modified fibronectin fragment in which two H-296's are connected); assay: ELISA as in Example 34; H296-H296 coated at 3.125 ug/mL in PBS; HRP-labeled FNH3-8
[12] = target: H-296, a polypeptide comprising a heparin binding domain and a CS-1 domain of fibronectin (Homo sapiens (Human)) (UniProt P02751); assay: ELISA; H-296 coated at 25 ug/mL in 0.2 M phosphate buffer pH 7.4; HRP-labeled FNH3-8, ABTS
H296-H296-HT [13] = assay: ELISA; H296-H296-HT coated at 0.5 ug/mL; HRP-labeled FNH3-8, ABTS; blank subtracted
H296-H296-HT [14] = assay: ELISA; H296-H296-HT coated at 10 ug/mL; HRP-labeled FNH3-8, ABTS; blank subtracted
[15] = target: H296-H296 (modified fibronectin fragment in which two H-296's are connected); assay: ELISA as in Example 34; H296-H296 coated at 12.5 ug/mL in PBS; HRP-labeled FNH3-8
[16] = target: H-296, a polypeptide comprising a heparin binding domain and a CS-1 domain of fibronectin (Homo sapiens (Human)) (UniProt P02751); assay: ELISA as in Example 34; H-296 coated at 6.25 ug/mL in pH 5.6 acetate buffer; HRP-labeled FNH3-8
H296-H296-HT [17] = assay: ELISA; H296-H296-HT coated at 25 ug/mL; HRP-labeled FNH3-8, ABTS; blank subtracted
[18] = target: H-296, a polypeptide comprising a heparin binding domain and a CS-1 domain of fibronectin (Homo sapiens (Human)) (UniProt P02751); assay: ELISA; H-296 coated at 50 ug/mL in 0.2 M phosphate buffer pH 7.4; HRP-labeled FNH3-8, ABTS
[19] = target: H-296, a polypeptide comprising a heparin binding domain and a CS-1 domain of fibronectin (Homo sapiens (Human)) (UniProt P02751); assay: ELISA as in Example 34; H-296 coated at 12.5 ug/mL in pH 5.6 acetate buffer; HRP-labeled FNH3-8
[20] = target: H-296, a polypeptide comprising a heparin binding domain and a CS-1 domain of fibronectin (Homo sapiens (Human)) (UniProt P02751); assay: ELISA; H-296 coated at 50 ug/mL in 0.2 M acetate buffer pH 3.8; HRP-labeled FNH3-8, ABTS
[21] = target: H-296, a polypeptide comprising a heparin binding domain and a CS-1 domain of fibronectin (Homo sapiens (Human)) (UniProt P02751); assay: ELISA; H-296 coated at 25 ug/mL in 0.2 M acetate buffer pH 3.8; HRP-labeled FNH3-8, ABTS
H296-H271 [22] = assay: ELISA; H296-H271 coated at 13 ug/mL; HRP-labeled FNH3-8, ABTS; blank subtracted
H271-H296 = assay: ELISA; H271-H296 coated at 12 ug/mL; HRP-labeled FNH3-8, ABTS; blank subtracted
[23] = target: H-296, a polypeptide comprising a heparin binding domain and a CS-1 domain of fibronectin (Homo sapiens (Human)) (UniProt P02751); assay: ELISA; H-296 coated at 25 ug/mL in 0.2 M phosphate buffer pH 6.8; HRP-labeled FNH3-8, ABTS
[24] = target: H296-H296 (modified fibronectin fragment in which two H-296's are connected); assay: ELISA as in Example 34; H296-H296 coated at 25 ug/mL in PBS; HRP-labeled FNH3-8
[25] = target: H-296, a polypeptide comprising a heparin binding domain and a CS-1 domain of fibronectin (Homo sapiens (Human)) (UniProt P02751); assay: ELISA; H-296 coated at 50 ug/mL in 0.2 M acetate buffer pH 5.6; HRP-labeled FNH3-8, ABTS

H296-H296-HT, sequence (chain, as listed by the source limits assumed): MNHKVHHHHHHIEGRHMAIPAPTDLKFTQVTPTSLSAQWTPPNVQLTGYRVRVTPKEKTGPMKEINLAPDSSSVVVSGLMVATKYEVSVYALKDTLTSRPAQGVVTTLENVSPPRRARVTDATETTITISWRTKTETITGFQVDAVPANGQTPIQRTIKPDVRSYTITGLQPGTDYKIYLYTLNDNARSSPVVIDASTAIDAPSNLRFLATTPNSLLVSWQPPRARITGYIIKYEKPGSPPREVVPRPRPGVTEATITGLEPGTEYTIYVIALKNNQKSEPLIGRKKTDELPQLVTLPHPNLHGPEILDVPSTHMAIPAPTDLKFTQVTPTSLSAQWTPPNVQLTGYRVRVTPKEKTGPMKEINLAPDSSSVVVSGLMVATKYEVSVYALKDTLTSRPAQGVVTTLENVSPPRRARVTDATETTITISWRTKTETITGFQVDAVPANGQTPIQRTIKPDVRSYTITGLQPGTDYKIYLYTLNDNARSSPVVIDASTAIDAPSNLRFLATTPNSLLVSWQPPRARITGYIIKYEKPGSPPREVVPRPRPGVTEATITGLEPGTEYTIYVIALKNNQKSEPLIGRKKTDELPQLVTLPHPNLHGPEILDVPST
H296-H271, sequence (chain, as listed by the source limits assumed): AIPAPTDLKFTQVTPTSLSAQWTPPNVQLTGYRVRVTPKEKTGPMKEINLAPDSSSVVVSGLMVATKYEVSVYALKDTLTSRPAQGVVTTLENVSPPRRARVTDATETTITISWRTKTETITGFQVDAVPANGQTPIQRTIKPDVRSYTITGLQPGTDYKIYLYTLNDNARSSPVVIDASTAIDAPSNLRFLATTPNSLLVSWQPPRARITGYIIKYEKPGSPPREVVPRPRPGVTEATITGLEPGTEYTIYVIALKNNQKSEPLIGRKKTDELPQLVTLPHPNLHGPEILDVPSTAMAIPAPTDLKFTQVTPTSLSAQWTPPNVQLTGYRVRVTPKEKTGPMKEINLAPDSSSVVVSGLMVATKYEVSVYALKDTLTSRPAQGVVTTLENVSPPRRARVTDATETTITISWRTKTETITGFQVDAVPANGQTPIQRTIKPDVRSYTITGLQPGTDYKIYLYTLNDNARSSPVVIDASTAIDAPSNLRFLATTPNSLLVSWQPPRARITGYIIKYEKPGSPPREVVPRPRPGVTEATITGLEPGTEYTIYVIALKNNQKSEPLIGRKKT
H296-H296-H296-HT, sequence (chain, as listed by the source limits assumed): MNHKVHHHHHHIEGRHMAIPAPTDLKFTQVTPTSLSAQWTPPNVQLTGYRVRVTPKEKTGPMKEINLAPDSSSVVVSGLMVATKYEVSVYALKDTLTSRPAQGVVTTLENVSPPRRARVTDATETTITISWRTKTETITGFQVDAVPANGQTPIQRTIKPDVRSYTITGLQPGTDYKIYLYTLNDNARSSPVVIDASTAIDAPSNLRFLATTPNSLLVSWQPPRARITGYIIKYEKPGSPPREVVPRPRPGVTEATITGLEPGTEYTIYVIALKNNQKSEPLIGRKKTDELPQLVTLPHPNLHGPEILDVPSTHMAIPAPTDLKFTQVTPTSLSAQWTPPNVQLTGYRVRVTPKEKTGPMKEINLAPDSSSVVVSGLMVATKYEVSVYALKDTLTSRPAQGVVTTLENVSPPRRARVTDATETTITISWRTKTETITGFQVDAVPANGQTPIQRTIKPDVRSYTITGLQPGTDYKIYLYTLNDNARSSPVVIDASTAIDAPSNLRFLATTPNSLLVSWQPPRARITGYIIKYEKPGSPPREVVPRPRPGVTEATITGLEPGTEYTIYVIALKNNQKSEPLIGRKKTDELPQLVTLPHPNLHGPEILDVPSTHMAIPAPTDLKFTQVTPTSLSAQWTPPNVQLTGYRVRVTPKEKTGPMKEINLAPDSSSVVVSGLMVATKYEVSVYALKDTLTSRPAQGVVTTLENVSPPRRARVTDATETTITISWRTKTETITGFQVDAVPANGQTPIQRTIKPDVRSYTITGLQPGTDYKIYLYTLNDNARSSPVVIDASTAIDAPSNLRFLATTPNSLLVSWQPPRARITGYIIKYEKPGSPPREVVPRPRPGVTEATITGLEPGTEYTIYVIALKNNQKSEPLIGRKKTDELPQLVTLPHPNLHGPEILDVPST
H271-H296, sequence (chain, as listed by the source limits assumed): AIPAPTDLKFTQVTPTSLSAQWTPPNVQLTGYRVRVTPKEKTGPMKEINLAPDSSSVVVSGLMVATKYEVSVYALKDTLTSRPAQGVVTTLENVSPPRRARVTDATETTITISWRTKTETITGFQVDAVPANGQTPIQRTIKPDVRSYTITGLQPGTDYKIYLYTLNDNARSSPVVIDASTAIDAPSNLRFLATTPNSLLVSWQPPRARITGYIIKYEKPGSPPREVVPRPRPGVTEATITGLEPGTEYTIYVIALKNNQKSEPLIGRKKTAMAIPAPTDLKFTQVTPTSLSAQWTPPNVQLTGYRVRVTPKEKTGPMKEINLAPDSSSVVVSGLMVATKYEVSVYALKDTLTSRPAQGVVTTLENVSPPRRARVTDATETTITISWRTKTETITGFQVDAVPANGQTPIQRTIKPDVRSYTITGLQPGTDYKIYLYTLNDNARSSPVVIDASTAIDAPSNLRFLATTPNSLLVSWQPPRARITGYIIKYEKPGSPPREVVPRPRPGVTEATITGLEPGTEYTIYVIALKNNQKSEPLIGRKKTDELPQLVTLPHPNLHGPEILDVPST

- 405 nm (Found Value - Blank) (H296-H271 [1]): 0.635
- 405 nm (Found Value - Blank) (H296-H296-H296-HT [2]): 0.81
- absorbance at 405 nm [3]: 0.244
- 405 nm (Found Value - Blank) (H296-H296-H296-HT [4]): 0.261
- absorbance at 405 nm [5]: 0.174
- 405 nm (Found Value - Blank) (H296-H271 [6]): 0.448
- absorbance at 405 nm [7]: 0.304
- 405 nm (Found Value - Blank) (H296-H271 [8]): 0.518
- absorbance at 405 nm [9]: 0.392
- 405 nm (Found Value - Blank) (H296-H296-HT [10]): 0.742
- absorbance at 405 nm [11]: 1.01
- absorbance at 405 nm [12]: 0.08
- 405 nm (Found Value - Blank) (H296-H296-HT [13]): 0.033
- 405 nm (Found Value - Blank) (H296-H296-HT [14]): 0.976
- absorbance at 405 nm [15]: 1.73
- absorbance at 405 nm [16]: 0.221
- 405 nm (Found Value - Blank) (H296-H296-HT [17]): 0.965
- absorbance at 405 nm [18]: 0.169
- absorbance at 405 nm [19]: 0.277
- absorbance at 405 nm [20]: 0.213
- absorbance at 405 nm [21]: 0.243
- 405 nm (Found Value - Blank) (H296-H271 [22]): 0.609
- 405 nm (Found Value - Blank) (H271-H296): 0.639
- absorbance at 405 nm [23]: 0.075
- absorbance at 405 nm [24]: 2.02
- absorbance at 405 nm [25]: 0.567
Substance: FNH3-8 antibody (manufactured by TAKARA BIO INC.) labeled with HRP
